Source: the supplement of paper PMC9170038

System: MS2 coat protein
Assay: apparent KD of MS2 coat protein; designed switch direction (-1 OFF switch, 1 ON switch): 1; higher = weaker reporter binding
How it was run: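 The reported apparent KD is a per-design median over clusters, from curve fits of normalised cluster fluorescence. Protein titrations used SNAP-549-labelled MS2 coat protein, doubled from 0.7 or 1.5 nM to 3 µM, in Tris-HCl pH 7.5 buffer with KCl, MgCl2, BSA, DTT, tRNA and Tween-20, with no input, 200 uM small-molecule ligand, or an oligonucleotide input. The RNA switches were transcribed on Illumina chips by stalled E. coli RNA polymerase.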

[1] = input ligand: microRNA oligo, concentration not stated
[2] = Eterna round: R95, input ligand: FMN 200 uM
[3] = Eterna round: R95, input ligand: microRNA oligo, concentration not stated
[4] = Eterna round: R95, input ligand: none

Sequence | apparent KD of MS2 coat protein (input ligand: FMN 200 uM) [nM] | apparent KD of MS2 coat protein [1] [nM] | apparent KD of MS2 coat protein (input ligand: none) [nM] | apparent KD of MS2 coat protein [2] [nM] | apparent KD of MS2 coat protein [3] [nM] | apparent KD of MS2 coat protein [4] [nM]
AGCAGAGAAAUAGGAUAUGGCUGAGACAUGACGGCGGUACAUGAGGAUCACCCAUGUCCGCAAAGCCAGAAGGGUUUUGAAUGU [Ticecexe] (Eterna round: R96, puzzle: Same State NG 2) | 13.7 | 16.5 | 33.4 | – | – | –
GCUGCAAGGGCAGGAUAUGGGUUCAGAGCAGAAGUGCGCUUUGAUACAUGAGGAUCACCCAUGUCCCAGAAGGGCCCAAGCGGC [Veribe] (Eterna round: R96, puzzle: Same State NG 2) | 17.7 | 98.3 | 159 | – | – | –
UGUUGUUAAUUAGGAUAUGGGCACAUGAGGAUCACCCAUGUAUUUUCGAUGCUAUGUGGAGACGUCUAGAAGGGAUGGCUAACA [SameState NG2 #88] (Eterna round: R96, puzzle: Same State NG 2) | 254 | 151 | 158 | – | – | –
UUAAAACAUGAGGAUCACCCAUGUCAACAAAGUCGAGGAUAUGGGCAAAUAAAAUAAGAACCAGAAGGCGAAUAAA [salish99_SS1_r3_002] (puzzle: Same State 1) | – | – | – | 39.5 | 245 | 412
GGUCCAGCCUGAGCUGGACAAAAGCAUGUACAUGAGGAUCACCCAUGUUCAUGUACAAGCUUUUUGCUCGUCUUACU [salish99_208a_r3_085] (puzzle: Sensor for hsa-mir-208a) | – | – | – | 681 | 15 | 553
AGCCUGAGUCGAGGAUAUUAUGGAUCAAUUAAUACAUGAGGAUCACCCAUGUAAUUAAUUUAACAUGAGAAGGUGACUCAGGCA [SSNG2/10-B1] (Eterna round: R96, puzzle: Same State NG 2) | – | 8.66 | – | – | – | –
UUGGUGUAGAUACAGGAUAUGUUGCUCGUAACAUGAGGAUCACCCAUGUAUCUAUGAGAUUAAAUGCAGAAGGGUGCACAUCACU [salish99_ss2_r3_088] (puzzle: Same State 2) | – | – | – | 121 | 54.2 | 329
UGUACAUGAGGAUCACCCAUGUCUAGACAUGUUAAUAUAAUGUAGGAUAUAUAAAAUUUAAAUUAAUAGAAGGACAAUUUUUUU [JMF's solution 2] (Eterna round: R96, puzzle: Same State NG 3) | 113 | 155 | 212 | – | – | –
UGUUGUAUUACAGGAUAUCUAGUUUUUUUAUUUAGAGAAGGGUAUUCACAUGAGGAUCACCCAUGUAUAUACGAGGAAGUUGUG [JMF's solution 33] (Eterna round: R96, puzzle: Same State NG 1) | – | 36.4 | – | – | – | –
GGUAGGUUACUACCAAACAUGAGGAUCACCCAUGUAAGUGGGAAGGAUAUGGUACCUUUUAGGUACCAGAAGGUCCAUAUAGUU [JL Fiskers NG3ss - 2 mod 9] (Eterna round: R96, puzzle: Same State NG 3) | 405 | 141 | 501 | – | – | –
GUAGCAUACCGAGGAUAUUCAUAUUAUAACAUGAGGAUCACCCAUGUAGGCCGAUUACGGCCUUGGGAGAAGGCGGAAUGCUAC [Xeonanis - 20 Mod19] (Eterna round: R96, puzzle: Same State NG 2) | 27.9 | 229 | 342 | – | – | –
GAGUAGUUAAAAGGAUAUUGAUUAUUGUAGGAUCAAGAAGGUUUUAACAUGAGGAUCACCCAUGUAGGACUAUUCCUGUGAAAA [Parity 92 - Jieux - Same State NG 1] (Eterna round: R96, puzzle: Same State NG 1) | – | 10.9 | – | – | – | –
AAUUAUUCACAUGAGGAUCACCCAUGUGAUAUUAUUAUUACAAGCUUUUUGCUCGUCUUGUUCCUCAGUGAAUAAUU [Default title] (puzzle: Sensor for hsa-mir-208a version 2) | – | – | – | 18.3 | 74.5 | 15.9
AUAAGUUCGAUGCUCGUCUCUCCGUACAAACAUGAGGAUCACCCAUGUGAUUGAGCAGUAGCCCAAUCAGUAUGGCC [Tileus] (puzzle: Sensor for hsa-mir-208a) | – | – | – | 45.1 | 23.9 | 47.9
ACCCAAAGUAUAUGGGAACAAGCUUUUUAACAUGAGGAUCACCCAUGUACUCGUCUUAUAAGCAGUCGAAAGACUGC [hsa-mir-208a sensor: 100] (Eterna round: R96, puzzle: Sensor for hsa-mir-208a) | 557 | 14.3 | 877 | – | – | –
AUAUUCUUCCGCGACACCCACAUGAGGAUCACCCAUGUUGAACAGGAUAUGUAGUUCAUCUGAACACAGAAGGGUUAAAGGAAG [Eternabot solution 28] (Eterna round: R96, puzzle: Same State NG 3) | 16.5 | 16.5 | 20 | – | – | –
UGGAGAAAUCAAGGAUAUGCUACCGUUUCGGUAGCAGAAGGUGAUCACAUGAGGAUCACCCAUGUAUGCAUGCGUGAGCGUGCU [JL SSNG1 3.54] (Eterna round: R96, puzzle: Same State NG 1) | – | 12.6 | – | – | – | –
GCGAGCGUACUUGCAACAUGAGGAUCACCCAUGUUAACUGGACAGGAUAUGGUACCGUUUCGGUACCAGAAGGGUUCCUCAUUG [JL SSNG3 3.63] (Eterna round: R96, puzzle: Same State NG 3) | 319 | 34.7 | 437 | – | – | –
CUGAGCAGUCAAGGAUAUCACGUCGUUUAGACGUGAGAAGGUGAUUAAUACAUGAGGAUCACCCAUGUAAUACAUGAAGCUCAG [SSNG1/11-A3] (Eterna round: R96, puzzle: Same State NG 1) | 20.9 | 30.9 | 42.5 | – | – | –
ACAUGAGACACAGGAUAUCAUGUACCUACAUGUGACAUGAGGAUCACCCAUGUGGUAAGUAUGACUGAGAAGGGUGAGAUAUGU [Equivalance 89 - Jieux - Same State NG 2] (Eterna round: R96, puzzle: Same State NG 2) | 369 | 394 | 962 | – | – | –
CCGUUCAAUAAACAUGAGGAUCACCCAUGUGAUAAUAAGGGUGAGGAUAUGCAUCUGAAACAGGUGCAGAAGGCAUAAGAGCGG [JL SSNG3 3.91] (Eterna round: R96, puzzle: Same State NG 3) | 327 | 169 | 316 | – | – | –
AAUUAAUUAAUUAAGUACAUGAGGAUCACCCAUGUAAGUGAUCAGGAUAUCAGCUCGAAUAGAGCUGAGAAGGGAUCCAUGUAC [SSNG3/15-A1] (Eterna round: R96, puzzle: Same State NG 3) | 332 | 322 | 375 | – | – | –
CCGAUGCUUAUAAAACAUGAGGAUCACCCAUGUGAGACACAUGAGGAUAUGCAGGUCAAAGACUUGCAGAAGGCAUAGCGUCGG [JL SSNG3 3.88] (Eterna round: R96, puzzle: Same State NG 3) | – | 360 | – | – | – | –
CAUCUCCCUUUUACAUGAGGAUCACCCAUGUUUUUAUAUUGAGAGGAUAUCGUAUUUAGAAACAUCGAGAAGGCUCAUUUGUAU [JR_SSNG3_Sub072] (Eterna round: R96, puzzle: Same State NG 3) | 83.2 | 89.1 | 153 | – | – | –
GCGAGCGUACUUGCAGACAUGAGGAUCACCCAUGUAACUGGGUAGGAUAUGGUACCGUUUCGGUACCAGAAGGACUUAUGAAAG [JL SSNG3 1.50] (Eterna round: R96, puzzle: Same State NG 3) | 67 | 35 | 54.4 | – | – | –
AGAAGGAGAGCGCAGGAUAUCGAUAAUGACACAUGAGGAUCACCCAUGUUUGGUAUUAGAAGGAACGAGAAGGGUGAAAGGAGAA [knee_arm_01] (puzzle: Same State 2) | – | – | – | 59.2 | 59.8 | 116
AUUUUCAAUGCAGGAUAUGAUUAACAUGAGGAUCACCCAUGUGGUGUUGUGAGUAAGGAGAGUGAUCAGAAGGGCAUUUUUUUU [JMF's solution 97] (Eterna round: R96, puzzle: Same State NG 2) | 428 | 371 | 486 | – | – | –
CAGCACUAUCGAGAGGAUAUGCGGUGAUGGACAUGAGGAUCACCCAUGUUAGCGGUAGCAUCACGGCAGAAGGCUCUGCUGCUGC [Soteed Omei mod 39] (puzzle: Same State 2) | – | – | – | 20.4 | 28.8 | 37.4
